Key:
[1] = biological target: T1, humanized FGFR1c/humanized betaKlotho (hβKlotho)-expressing cells (Homo sapiens, UniProt P11362+Q86Z14); test: DNA synthesis in humanized FGFR1c/humanized betaKlotho-expressing BaF3 cells; type: cell-based; conditions: humanized FGFR1c and humanized betaKlotho; 10 μg/ml heparin
T1 construct: expressed in transfected cells; host or cells: BaF3 (mouse pro-B) cells; pSRalpha (FGFR1c), pcDNA3.1 (betaKlotho)
Source text: In Examples 4, 5, 6, and 7, it was shown that FGF21 reacts with FGFR1c in the presence of betaKlotho. FGFR1c, betaKlotho, FGF21, and the like, which were used in an actual experimental system, were all derived from mice used as typical mammalian models. With regard to these molecules, the homology between a human and a mouse at the amino acid sequence level is extremely high (80% in FGF21, 78% in betaKlotho, and 98% in FGFR1). As a result, naturally, there are no problems regarding the compatibility of the human with the mouse, and thus it is clear that the same results as those from a murine molecule will be obtained even using a humanized molecule. In the present example, as a precautionary measure, an experimental system using a humanized molecule was constructed to confirm such respect, and an experiment was carried out. Specifically, the humanized cDNA of FGFR1c and that of betaKlotho were prepared from a commercially available human RNA sample (Takara Bio Inc.) by PCR. FGFR1c was introduced into an expression vector having an SRalpha promoter (pSRalpha), and betaKlotho was introduced into an expression vector having a CMV promoter (pcDNA3.1; Invitrogen). […] In the presence of heparin, humanized FGF21 was added in various types of concentrations to FGFR1c-expressing cells or FGFR1c/betaKlotho-co-expressing cells, and the amount of DNA synthesized was then measured.

[2] = biological target: T2, betaKlotho (Mus musculus, UniProt Q99N32); test: Co-precipitation of FGF21 with soluble betaKlotho protein (anti-V5 beads, immunoblotting); type: binding; conditions: presence or absence of heparin
T2 construct: a V5 tag and a His tag were added to the C-terminus of the extracellular domain of betaKlotho; made in house
T2 sequence (Q99N32 1-992): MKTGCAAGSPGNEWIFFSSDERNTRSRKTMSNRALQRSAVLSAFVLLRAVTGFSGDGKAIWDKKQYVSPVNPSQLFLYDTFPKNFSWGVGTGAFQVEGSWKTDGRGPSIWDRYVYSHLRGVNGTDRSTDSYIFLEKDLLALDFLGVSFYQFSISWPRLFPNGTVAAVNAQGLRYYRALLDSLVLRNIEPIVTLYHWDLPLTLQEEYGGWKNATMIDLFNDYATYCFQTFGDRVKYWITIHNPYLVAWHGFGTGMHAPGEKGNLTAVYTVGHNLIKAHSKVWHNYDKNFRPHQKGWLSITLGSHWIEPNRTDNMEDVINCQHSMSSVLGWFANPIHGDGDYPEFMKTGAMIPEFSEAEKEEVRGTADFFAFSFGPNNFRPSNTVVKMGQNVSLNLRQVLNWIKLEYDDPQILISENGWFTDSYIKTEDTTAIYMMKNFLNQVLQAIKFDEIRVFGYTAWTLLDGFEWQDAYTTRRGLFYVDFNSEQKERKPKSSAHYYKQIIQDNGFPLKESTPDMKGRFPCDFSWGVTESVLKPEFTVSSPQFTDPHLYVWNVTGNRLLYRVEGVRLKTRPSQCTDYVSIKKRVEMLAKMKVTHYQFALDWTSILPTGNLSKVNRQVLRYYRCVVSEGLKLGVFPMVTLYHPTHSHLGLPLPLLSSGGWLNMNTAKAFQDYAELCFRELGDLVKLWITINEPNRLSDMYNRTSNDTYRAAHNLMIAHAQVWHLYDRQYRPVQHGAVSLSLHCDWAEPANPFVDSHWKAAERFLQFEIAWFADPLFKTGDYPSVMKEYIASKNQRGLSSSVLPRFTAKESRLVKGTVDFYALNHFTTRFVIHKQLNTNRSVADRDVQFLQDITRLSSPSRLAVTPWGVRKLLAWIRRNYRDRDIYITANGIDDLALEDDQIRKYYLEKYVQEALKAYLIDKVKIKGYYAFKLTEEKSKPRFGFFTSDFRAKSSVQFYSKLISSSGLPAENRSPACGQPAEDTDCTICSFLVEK
Description: In the present example, the formation of a complex between betaKlotho and an FGF receptor or FGF21 was examined in a biochemical manner. Specifically, a V5 tag and a His tag were added to the C-terminus of the extracellular domain of betaKlotho in a tandem manner to prepare a soluble protein. Thereafter, the soluble betaKlotho protein was incubated with FGF21 in a test tube in the presence or absence of heparin, and betaKlotho was then precipitated using anti-V5 tag antibody-immobilized beads. Whether or not FGF21 bound to betaKlotho and was co-precipitated therewith was analyzed by an immunoblotting method.

[3] = system: 3T3-L1 fibroblasts forced to express betaKlotho; test: Phosphorylation of FRS2 and MAPK in undifferentiated 3T3-L1 cells forced to express betaKlotho; type: cell-based; conditions: betaKlotho expression vector; FGF21 1.1 μg/ml and 4.5 μg/ml; 10 minutes
Description: (§1) A betaKlotho expression vector produced by the method described in Example 4 and an empty vector used as a control, into which betaKlotho cDNA had not been inserted, were introduced into 3T3-L1 fibroblasts cultured as described in Example 1 by a lipofection method, thereby obtaining Puromycin-resistant clones. These different types of cells were stimulated with FGF21, and 10 minutes after the stimulation, a cell lysate was prepared. The activation of FRS2 and MAPK that were signaling molecules located downstream of FGFR was examined by a Western blotting method.

[4] = system: 3T3-L1 fibroblasts forced to express betaKlotho; test: GLUT1 mRNA level in 3T3-L1 fibroblasts forced to express betaKlotho; type: cell-based; conditions: betaKlotho expression vector; various concentrations; 6 hours
Description: A betaKlotho expression vector or an empty vector used as a control, into which betaKlotho cDNA had not been inserted, were introduced into 3T3-L1 fibroblasts, and FGF21 was then added in various types of concentrations to a culture solution of the 3T3-L1 fibroblasts. The obtained mixture was cultured for 6 hours. Thereafter, RNA was extracted, and the mRNA level of GLUT1 was then measured.

[5] = system: undifferentiated 3T3-L1 cells that had not expressed betaKlotho; test: Phosphorylation of FRS2 and MAPK in undifferentiated 3T3-L1 cells not expressing betaKlotho; type: cell-based; conditions: 10 minutes
Description: as §1

T1 sequence (P11362 22-822): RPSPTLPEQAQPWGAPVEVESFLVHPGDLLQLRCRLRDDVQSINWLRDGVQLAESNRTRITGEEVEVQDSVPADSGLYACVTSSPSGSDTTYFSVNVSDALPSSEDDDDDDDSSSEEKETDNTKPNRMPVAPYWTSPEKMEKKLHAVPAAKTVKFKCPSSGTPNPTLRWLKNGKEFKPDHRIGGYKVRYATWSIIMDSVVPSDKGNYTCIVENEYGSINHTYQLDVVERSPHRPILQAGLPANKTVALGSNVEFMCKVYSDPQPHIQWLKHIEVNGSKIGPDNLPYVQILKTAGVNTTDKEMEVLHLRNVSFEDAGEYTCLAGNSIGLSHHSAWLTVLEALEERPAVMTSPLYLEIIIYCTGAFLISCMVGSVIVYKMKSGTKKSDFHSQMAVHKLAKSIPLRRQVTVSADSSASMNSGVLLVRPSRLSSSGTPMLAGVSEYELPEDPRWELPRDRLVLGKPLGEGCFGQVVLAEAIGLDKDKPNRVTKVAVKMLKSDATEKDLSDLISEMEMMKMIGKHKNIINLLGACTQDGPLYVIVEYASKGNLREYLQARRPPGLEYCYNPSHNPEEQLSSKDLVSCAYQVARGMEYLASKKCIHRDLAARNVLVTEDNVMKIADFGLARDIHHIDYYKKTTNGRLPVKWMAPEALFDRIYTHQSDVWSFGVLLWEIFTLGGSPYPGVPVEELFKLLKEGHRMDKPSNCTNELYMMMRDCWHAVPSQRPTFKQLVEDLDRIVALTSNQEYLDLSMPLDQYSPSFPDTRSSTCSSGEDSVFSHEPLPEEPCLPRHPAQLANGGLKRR
T1 sequence (Q86Z14 whole entry): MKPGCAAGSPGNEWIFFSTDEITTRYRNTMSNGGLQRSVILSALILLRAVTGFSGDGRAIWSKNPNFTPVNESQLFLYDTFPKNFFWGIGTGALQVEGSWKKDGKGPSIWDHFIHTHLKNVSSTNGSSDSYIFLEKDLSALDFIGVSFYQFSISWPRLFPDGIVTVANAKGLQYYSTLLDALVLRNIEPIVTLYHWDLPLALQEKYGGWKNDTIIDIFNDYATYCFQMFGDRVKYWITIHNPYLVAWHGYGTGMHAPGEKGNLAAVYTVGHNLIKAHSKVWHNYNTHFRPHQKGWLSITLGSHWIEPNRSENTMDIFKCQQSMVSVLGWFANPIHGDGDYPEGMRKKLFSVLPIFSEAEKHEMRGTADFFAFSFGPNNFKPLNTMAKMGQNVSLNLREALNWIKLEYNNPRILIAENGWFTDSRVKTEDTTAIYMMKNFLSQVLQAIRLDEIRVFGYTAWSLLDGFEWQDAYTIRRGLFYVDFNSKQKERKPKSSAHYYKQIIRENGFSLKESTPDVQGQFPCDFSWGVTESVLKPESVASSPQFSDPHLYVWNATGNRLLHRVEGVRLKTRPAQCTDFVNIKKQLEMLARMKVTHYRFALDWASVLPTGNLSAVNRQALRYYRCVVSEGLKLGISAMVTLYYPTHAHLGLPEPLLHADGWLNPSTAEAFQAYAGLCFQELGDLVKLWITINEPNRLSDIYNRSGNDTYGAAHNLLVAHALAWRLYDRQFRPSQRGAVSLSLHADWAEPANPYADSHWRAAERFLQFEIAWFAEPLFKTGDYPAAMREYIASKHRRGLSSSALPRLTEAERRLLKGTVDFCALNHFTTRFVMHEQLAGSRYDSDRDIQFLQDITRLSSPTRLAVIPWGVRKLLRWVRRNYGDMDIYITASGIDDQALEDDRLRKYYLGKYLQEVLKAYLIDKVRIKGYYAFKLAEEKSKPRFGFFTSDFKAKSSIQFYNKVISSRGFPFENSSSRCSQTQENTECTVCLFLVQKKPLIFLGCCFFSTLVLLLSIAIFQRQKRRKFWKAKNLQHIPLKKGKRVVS

## FGF1: conventional FGF used as a control
[1]
  amount of DNA synthesized (thymidine incorporation): promoted the DNA synthesis

B1: FGF21: fibroblast growth factor 21; mouse-derived protein used in Examples 1-7 and 10-13 (protein)
chain: AYPIPDSSPLLQFGGQVRQRYLYTDDDQDTEAHLEIREDGTVVGAAHRSPESLLELKALKPGVIQILGVKASRFLCQQPDGALYGSPHFDPEACSFRELLLEDGYNVYQSEAHGLPLRLPQKDSPNQDATSWGPVRFLPMPGLLHEPQDQAGFLPPEPPDVGSSDPLSMVEPLQGRSPSYAS
[2]
  co-precipitation (binding) with soluble betaKlotho protein: precipitated in the presence of betaKlotho
[3]
  phosphorylation levels of FRS2 and MAPK: increased
[4]
  mRNA level of GLUT1: increased depending on the amount of FGF21
[5]
  phosphorylated state of FRS2 and MAPK: do not change

— patent publication US8697369B2, “Method for screening a test substance for activating a receptor associated with FGF 21 activity” (National Institute of Advanced Industrial Science and …, priority 2007, dated 2014)
